Test results reported in publication PMC5584140 (The Journal of Cell Biology, 2017).

Target: T1, µ1 MHD carrying a C-terminal Avitag, WT (UniProt Q9BXS5 158-423)
T1 sequence (looked up): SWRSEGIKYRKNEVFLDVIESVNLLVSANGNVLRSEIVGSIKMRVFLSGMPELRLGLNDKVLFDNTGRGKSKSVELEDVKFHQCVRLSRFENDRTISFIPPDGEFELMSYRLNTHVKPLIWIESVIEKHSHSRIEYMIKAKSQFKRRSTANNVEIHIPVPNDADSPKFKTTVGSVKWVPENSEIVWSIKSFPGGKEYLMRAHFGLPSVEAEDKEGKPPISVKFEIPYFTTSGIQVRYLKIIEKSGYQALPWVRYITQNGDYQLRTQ
Assay: SPR

CKVTRRPKASDYQRL [TGN38 peptide carrying a canonical YXXΦ signal]
Kd: ~20 µM
